Results from patent EP4745153A1, “GLP-1, GIP AND GCG RECEPTOR […] USE THEREOF” (Jiangsu Hengrui Pharmaceuticals Co., Ltd., priority 2023, dated 2025).
Read-outs that look alike come from different tables or passages of the source. Starred links: 1 amine or outer side, 2 acyl side, 3 side chain; linkers in the order of their positions; H or OH if unused. Non-standard residues stand in square brackets, D forms with d. Groups on a side chain read outwards from the residue. No end group written: not given here. *: point of attachment. C20 diacid = O=C(O)CCCCCCCCCCCCCCCCCCC(=O)*; γGlu = O=C(O)[C@H](CCC(=O)[*:2])N[*:1]; αMeL = CC(C)C[C@](C)(N)C(=O)O; Iva = CC[C@](C)(N)C(=O)O; Ac4c = NC1(C(=O)O)CCC1; AEEA = NCCOCCOCC(=O)O; Ac3c = NC1(C(=O)O)CC1; Aib = CC(C)(N)C(=O)O

T1: human glucose-dependent insulinotropic polypeptide receptor (human, UniProt P48546 22-466)
T1 sequence (looked up): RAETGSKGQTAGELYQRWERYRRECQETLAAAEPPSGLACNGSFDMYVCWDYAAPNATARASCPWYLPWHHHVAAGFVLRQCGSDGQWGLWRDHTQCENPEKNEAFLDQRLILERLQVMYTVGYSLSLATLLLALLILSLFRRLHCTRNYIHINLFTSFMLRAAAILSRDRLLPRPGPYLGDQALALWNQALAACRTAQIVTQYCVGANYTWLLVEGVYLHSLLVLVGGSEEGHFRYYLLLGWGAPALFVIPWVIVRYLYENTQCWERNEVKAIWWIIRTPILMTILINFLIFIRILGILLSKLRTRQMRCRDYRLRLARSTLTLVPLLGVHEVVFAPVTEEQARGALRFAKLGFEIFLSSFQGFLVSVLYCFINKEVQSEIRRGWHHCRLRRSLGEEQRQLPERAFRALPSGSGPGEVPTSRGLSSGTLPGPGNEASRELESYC

B1: Compound No. 0150 (peptide)
peptide: H[Aib]HGTFTSDYSILLEK([AEEA-AEEA-γGlu-C20 diacid])QAA[Ac4c]EFVEWLLA[dE]GPSSGAPPPS-NH2
modifications: N-terminus assumed
SMILES: CC[C@H](C)[C@H](NC(=O)[C@H](CO)NC(=O)[C@H](Cc1ccc(O)cc1)NC(=O)[C@H](CC(=O)O)NC(=O)[C@H](CO)NC(=O)[C@@H](NC(=O)[C@H](Cc1ccccc1)NC(=O)[C@@H](NC(=O)CNC(=O)[C@H](Cc1c[nH]cn1)NC(=O)C(C)(C)NC(=O)[C@@H](N)Cc1c[nH]cn1)[C@@H](C)O)[C@@H](C)O)C(=O)N[C@@H](CC(C)C)C(=O)N[C@@H](CC(C)C)C(=O)N[C@@H](CCC(=O)O)C(=O)N[C@@H](CCCCNC(=O)COCCOCCNC(=O)COCCOCCNC(=O)CC[C@H](NC(=O)CCCCCCCCCCCCCCCCCCC(=O)O)C(=O)O)C(=O)N[C@@H](CCC(N)=O)C(=O)N[C@@H](C)C(=O)N[C@@H](C)C(=O)NC1(C(=O)N[C@@H](CCC(=O)O)C(=O)N[C@@H](Cc2ccccc2)C(=O)N[C@H](C(=O)N[C@@H](CCC(=O)O)C(=O)N[C@@H](Cc2c[nH]c3ccccc23)C(=O)N[C@@H](CC(C)C)C(=O)N[C@@H](CC(C)C)C(=O)N[C@@H](C)C(=O)N[C@H](CCC(=O)O)C(=O)NCC(=O)N2CCC[C@H]2C(=O)N[C@@H](CO)C(=O)N[C@@H](CO)C(=O)NCC(=O)N[C@@H](C)C(=O)N2CCC[C@H]2C(=O)N2CCC[C@H]2C(=O)N2CCC[C@H]2C(=O)N[C@@H](CO)C(N)=O)C(C)C)CCC1
B2: Compound No. 0149 (peptide)
peptide: H[Aib]HGTFTSDYSILLEK([AEEA-AEEA-γGlu-C20 diacid])QAA[Ac3c]EFVEWLLA[dE]GPSSGAPPPS-NH2
modifications: N-terminus assumed
SMILES: CC[C@H](C)[C@H](NC(=O)[C@H](CO)NC(=O)[C@H](Cc1ccc(O)cc1)NC(=O)[C@H](CC(=O)O)NC(=O)[C@H](CO)NC(=O)[C@@H](NC(=O)[C@H](Cc1ccccc1)NC(=O)[C@@H](NC(=O)CNC(=O)[C@H](Cc1c[nH]cn1)NC(=O)C(C)(C)NC(=O)[C@@H](N)Cc1c[nH]cn1)[C@@H](C)O)[C@@H](C)O)C(=O)N[C@@H](CC(C)C)C(=O)N[C@@H](CC(C)C)C(=O)N[C@@H](CCC(=O)O)C(=O)N[C@@H](CCCCNC(=O)COCCOCCNC(=O)COCCOCCNC(=O)CC[C@H](NC(=O)CCCCCCCCCCCCCCCCCCC(=O)O)C(=O)O)C(=O)N[C@@H](CCC(N)=O)C(=O)N[C@@H](C)C(=O)N[C@@H](C)C(=O)NC1(C(=O)N[C@@H](CCC(=O)O)C(=O)N[C@@H](Cc2ccccc2)C(=O)N[C@H](C(=O)N[C@@H](CCC(=O)O)C(=O)N[C@@H](Cc2c[nH]c3ccccc23)C(=O)N[C@@H](CC(C)C)C(=O)N[C@@H](CC(C)C)C(=O)N[C@@H](C)C(=O)N[C@H](CCC(=O)O)C(=O)NCC(=O)N2CCC[C@H]2C(=O)N[C@@H](CO)C(=O)N[C@@H](CO)C(=O)NCC(=O)N[C@@H](C)C(=O)N2CCC[C@H]2C(=O)N2CCC[C@H]2C(=O)N2CCC[C@H]2C(=O)N[C@@H](CO)C(N)=O)C(C)C)CC1
B3: Compound No. 0148 (peptide)
peptide: H[Aib]HGTFTSDLSILLEK([AEEA-AEEA-γGlu-C20 diacid])QAA[Ac3c]EFVEWLLA[dE]GPSSGAPPPS-NH2
modifications: N-terminus assumed
SMILES: CC[C@H](C)[C@H](NC(=O)[C@H](CO)NC(=O)[C@H](CC(C)C)NC(=O)[C@H](CC(=O)O)NC(=O)[C@H](CO)NC(=O)[C@@H](NC(=O)[C@H](Cc1ccccc1)NC(=O)[C@@H](NC(=O)CNC(=O)[C@H](Cc1c[nH]cn1)NC(=O)C(C)(C)NC(=O)[C@@H](N)Cc1c[nH]cn1)[C@@H](C)O)[C@@H](C)O)C(=O)N[C@@H](CC(C)C)C(=O)N[C@@H](CC(C)C)C(=O)N[C@@H](CCC(=O)O)C(=O)N[C@@H](CCCCNC(=O)COCCOCCNC(=O)COCCOCCNC(=O)CC[C@H](NC(=O)CCCCCCCCCCCCCCCCCCC(=O)O)C(=O)O)C(=O)N[C@@H](CCC(N)=O)C(=O)N[C@@H](C)C(=O)N[C@@H](C)C(=O)NC1(C(=O)N[C@@H](CCC(=O)O)C(=O)N[C@@H](Cc2ccccc2)C(=O)N[C@H](C(=O)N[C@@H](CCC(=O)O)C(=O)N[C@@H](Cc2c[nH]c3ccccc23)C(=O)N[C@@H](CC(C)C)C(=O)N[C@@H](CC(C)C)C(=O)N[C@@H](C)C(=O)N[C@H](CCC(=O)O)C(=O)NCC(=O)N2CCC[C@H]2C(=O)N[C@@H](CO)C(=O)N[C@@H](CO)C(=O)NCC(=O)N[C@@H](C)C(=O)N2CCC[C@H]2C(=O)N2CCC[C@H]2C(=O)N2CCC[C@H]2C(=O)N[C@@H](CO)C(N)=O)C(C)C)CC1
B4: Compound No. 0151 (peptide)
peptide: H[Aib]HGTFTSDYSILLEK([AEEA-AEEA-γGlu-C20 diacid])KAAQEFVEWLLA[dE]GPSSGAPPPS-NH2
modifications: N-terminus assumed
SMILES: CC[C@H](C)[C@H](NC(=O)[C@H](CO)NC(=O)[C@H](Cc1ccc(O)cc1)NC(=O)[C@H](CC(=O)O)NC(=O)[C@H](CO)NC(=O)[C@@H](NC(=O)[C@H](Cc1ccccc1)NC(=O)[C@@H](NC(=O)CNC(=O)[C@H](Cc1c[nH]cn1)NC(=O)C(C)(C)NC(=O)[C@@H](N)Cc1c[nH]cn1)[C@@H](C)O)[C@@H](C)O)C(=O)N[C@@H](CC(C)C)C(=O)N[C@@H](CC(C)C)C(=O)N[C@@H](CCC(=O)O)C(=O)N[C@@H](CCCCNC(=O)COCCOCCNC(=O)COCCOCCNC(=O)CC[C@H](NC(=O)CCCCCCCCCCCCCCCCCCC(=O)O)C(=O)O)C(=O)N[C@@H](CCCCN)C(=O)N[C@@H](C)C(=O)N[C@@H](C)C(=O)N[C@@H](CCC(N)=O)C(=O)N[C@@H](CCC(=O)O)C(=O)N[C@@H](Cc1ccccc1)C(=O)N[C@H](C(=O)N[C@@H](CCC(=O)O)C(=O)N[C@@H](Cc1c[nH]c2ccccc12)C(=O)N[C@@H](CC(C)C)C(=O)N[C@@H](CC(C)C)C(=O)N[C@@H](C)C(=O)N[C@H](CCC(=O)O)C(=O)NCC(=O)N1CCC[C@H]1C(=O)N[C@@H](CO)C(=O)N[C@@H](CO)C(=O)NCC(=O)N[C@@H](C)C(=O)N1CCC[C@H]1C(=O)N1CCC[C@H]1C(=O)N1CCC[C@H]1C(=O)N[C@@H](CO)C(N)=O)C(C)C

Columns and labels:
Assay in all cases: cell-based or functional assay
human glucagon receptor [1] = biological target: T2, human glucagon receptor (human, UniProt P47871 26-477)
[2] = biological target: T1, human glucose-dependent insulinotropic …
[3] = biological target: T3, human glucagon-like peptide-1 receptor (human, UniProt P43220 24-463)
human glucagon receptor [4] = biological target: T2, human glucagon receptor; remark: listed apart in the source
[5] = biological target: T1, human glucose-dependent insulinotropic …; remark: listed apart in the source
human glucagon receptor [6] = biological target: T2, human glucagon receptor; remark: listed apart in the source
[7] = biological target: T3, human glucagon-like peptide-1 receptor; remark: listed apart in the source
human glucagon receptor [8] = biological target: T2, human glucagon receptor; remark: listed apart in the source
[9] = biological target: T1, human glucose-dependent insulinotropic …; remark: listed apart in the source

T2 sequence (P47871 26-477): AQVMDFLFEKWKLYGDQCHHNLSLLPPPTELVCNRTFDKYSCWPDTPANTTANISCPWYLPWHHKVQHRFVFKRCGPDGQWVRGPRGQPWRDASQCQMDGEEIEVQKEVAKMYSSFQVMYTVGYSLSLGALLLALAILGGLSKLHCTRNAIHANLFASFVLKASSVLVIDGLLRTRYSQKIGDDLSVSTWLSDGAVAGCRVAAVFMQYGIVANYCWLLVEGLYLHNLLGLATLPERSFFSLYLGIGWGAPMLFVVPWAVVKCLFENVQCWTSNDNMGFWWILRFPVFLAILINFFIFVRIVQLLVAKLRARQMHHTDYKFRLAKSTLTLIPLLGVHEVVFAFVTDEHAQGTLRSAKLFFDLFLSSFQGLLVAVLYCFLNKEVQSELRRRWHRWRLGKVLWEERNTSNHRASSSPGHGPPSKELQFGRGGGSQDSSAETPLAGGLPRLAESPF

Binder	Activity against human GCGR (EC50 nM) (human glucagon receptor [1])	Activity against human GIPR (EC50 nM) [2]	Activity against human GLP-1R (EC50 nM) [3]	further results
B1	0.076 nM	0.002 nM	0.076 nM	
H[Aib]QGTFTSDYSILLEK([AEEA-AEEA-γGlu-C20 diacid])KAA[Aib]EFVEWLLAGGPSSGAPPPS-NH2 [Compound No. 0156]				Activity against human GCGR (EC50 nM) (human glucagon receptor [4]): 0.566 nM; Activity against human GIPR (EC50 nM) [5]: 0.019 nM
H[Aib]HGTFTSDYSK[Aib]LEK([AEEA-AEEA-γGlu-C20 diacid])KAAQEFVEWLLAGGPSSGAPPPS-NH2 [Compound No. 0107]				Activity against human GCGR (EC50 nM) (human glucagon receptor [6]): 0.274 nM; Activity against human GLP-1R (EC50 nM) [7]: 0.016 nM
H[Aib]QGTFTSDYSI[αMeL]LEK([AEEA-AEEA-γGlu-C20 diacid])KAA[Aib]EFVEWLLAGGPSSGAPPPS-NH2 [Compound No. 0157]				Activity against human GCGR (EC50 nM) (human glucagon receptor [4]): 1.33 nM; Activity against human GIPR (EC50 nM) [5]: 0.008 nM
B2	0.301 nM	0.004 nM	0.071 nM	
H[Aib]HGTFTSDLSILLEK([AEEA-AEEA-γGlu-C20 diacid])KAA[Iva]EFVEWLLAGGPSSGAPPPS-NH2 [Compound No. 0136]				Activity against human GCGR (EC50 nM) (human glucagon receptor [8]): 0.039 nM; Activity against human GIPR (EC50 nM) [9]: 0.001 nM
B3	0.549 nM	0.006 nM	0.06 nM	
B4	0.055 nM	0.004 nM	0.037 nM	
